Earlier results on 1 substance are cited in paper PMC7878404.

pKd: −log10 of the molar value.

The series concerns the target Bex1 50-75 (UniProt Q9R224).
Sequence of UniProt Q9R224 (Q9R224 50-75): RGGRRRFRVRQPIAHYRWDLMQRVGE

For the substance OMP (from UniProt P08523), the pKd (usually −log10 of the Kd, conventionally taken in molar units) is 3.82.
